Laboratory results as given in patent US20250179187A1, “ANTI PD-L2 ANTIBODY” (REJUVERON SENESCENCE THERAPEUTICS AG, priority 2022, published 2025).
Where two headings read alike, the source gives them in different places.

Columns and labels:
[1] = target: human PD-L2 on CHO-K1 cells of the Promega PD-1/PD-L2 blockade bioassay (human) (UniProt Q9BQ51)
[2] = target: human PD-L2 on CHO-K1 cells over-expressing hPDL2-GFP (human) (UniProt Q9BQ51); experiment: binding to cellular PDL2 (FIG. 1A by the text; flow cytometry on CHO-K1 cells expressing hPD-L2)
[3] = target: human PD-L2 on CHO-K1 cells over-expressing hPDL2-GFP (human) (UniProt Q9BQ51); experiment: flow cytometry blocking assay: antibody titrated against recombinant hPD-1 (constant 15 micrograms/mL) binding to CHO-K1 cells expressing hPD-L2; signal falls with the antibody; column head on the sheet is EC50
[4] = target: human PD-L2 on CHO-K1 cells over-expressing hPDL2-GFP (human) (UniProt Q9BQ51); experiment: flow cytometry on CHO-K1 cells expressing hPD-L2, median fluorescence
[5] = target: human PD-L2 on CHO-K1 cells of the Promega PD-1/PD-L2 blockade bioassay (human) (UniProt Q9BQ51); remark: listed apart in the source
[6] = target: mouse PD-L2 on CHO-K1 cells over-expressing mPD-L2 GFP (mouse) (UniProt Q9WUL5); experiment: flow cytometry on CHO-K1 cells overexpressing mPD-L2, mean fluorescence
Chain of mouse PD-L2 on CHO-K1 cells over-expressing mPD-L2 GFP (mouse) (Q9WUL5 20-247): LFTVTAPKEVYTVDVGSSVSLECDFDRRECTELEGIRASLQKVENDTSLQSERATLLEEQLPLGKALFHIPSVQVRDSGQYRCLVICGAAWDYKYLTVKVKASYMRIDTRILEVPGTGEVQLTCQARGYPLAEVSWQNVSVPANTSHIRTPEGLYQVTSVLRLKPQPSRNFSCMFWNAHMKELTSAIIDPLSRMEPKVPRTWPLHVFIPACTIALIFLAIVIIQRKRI

Chain of human PD-L2 on CHO-K1 cells over-expressing hPDL2-GFP (human) (Q9BQ51 20-273): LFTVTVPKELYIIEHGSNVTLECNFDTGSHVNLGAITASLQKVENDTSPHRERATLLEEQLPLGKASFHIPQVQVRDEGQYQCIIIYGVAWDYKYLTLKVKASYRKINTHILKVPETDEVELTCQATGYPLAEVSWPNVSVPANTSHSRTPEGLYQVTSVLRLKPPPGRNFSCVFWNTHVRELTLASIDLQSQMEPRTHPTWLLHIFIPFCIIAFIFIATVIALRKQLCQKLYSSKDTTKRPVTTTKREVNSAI
Chain of human PD-L2 on CHO-K1 cells of the Promega PD-1/PD-L2 blockade bioassay (human) (Q9BQ51 20-273): as above

Substance: 24F.10C12 (commercially available anti-PD-L2 monoclonal antibody)
- EC50 (PD-1/PD-L2 blockade reporter assay, luminescence) [1]: 1.78 nM
- EC50 [2]: 0.7 nM
- EC50 [3]: 1.14 nM
- EC50 [4]: 1.18 nM

Substance: MIH-18 (commercially available anti-PD-L2 monoclonal antibody)
- EC50 (PD-1/PD-L2 blockade reporter assay, luminescence) [1]: 1.71 nM
- EC50 (PD-1/PD-L2 blockade reporter assay, luminescence) [5]: 1.32 nM
- EC50 [2]: 0.618 nM
- EC50 [3]: 2.99 nM
- EC50 [4]: 1.65 nM

Substance: TY25 (antibody)
- EC50 [6]: 0.64 nM
